B1: N-terminal half of ubiquitin-fused talin head domain (N-Ub-THD), wild type [not stated] / integrin β3 transmembrane domain-tail fused to the C-terminal half of ubiquitin (C-Ub) [not stated] (parent)
chain 1: MVALSLKISIGNVVKTMQFEPSTMVYDACRMIRERIPEALAGPPNDFGLFLSDDDPKKGIWLEAGKALDYYMLRNGDTMEYRKKQRPLKIRMLDGTVKTIMVDDSKTVTDMLMTICARIGITNHDEYSLVRELMEEKKDEGTGTLRKDKTLLRDEKKMEKLKQKLHTDDELNWLDHGRTLREQGVEEHETLLLRRKFFYSDQNVDSRDPVQLNLLYVQARDDILNGSHPVSFDKACEFAGFQCQIQFGPHNEQKHKAGFLDLKDFLPKEYVKQKGERKIFQAHKNCGQMSEIEAKVRYVKLARSLKTYGVSFFLVKEKMKGKNKLVPRLLGITKECVMRVDEKTKEVIQEWSLTNIKRWAASPKSFTLDFGDYQDGYYSVQTTEGEQIAQLIAGYIDIILKKKKSKDHFGLEGDEESTMLEDSVSPKKSTVLQ
chain 2: ILVVLLSVMGAILLIGLAALLIWKLLITIHDRKEFAKFEEERARAKWDTANNPLYKEATSTFTNITYRGT

In the test the parent is B1. The test is described as follows: mammalian two-hybrid (split-ubiquitin) assay, GFP expression read by flow cytometry. Conditions: with integrin β3 transmembrane domain-tail fused to the C-terminal half of ubiquitin (C-Ub); CHO cells stably incorporated with 5xGAL4-UAS and the integrin β3 TMD-tail construct; Empty control 0.23 %, N-Ub-THD(ΔF3) 1.96 %; parent: 7.9. (In general: A flow cytometer gives signals particle by particle.)
On to chain 1 MVALSLKISIGNVVKTMQFEPSTMVYDACRMIRERIPEALAGPPNDFGLFLSDDDPKKGIWLEAGKALDYYMLRNGDTMEYRKKQRPLKIRMLDGTVKTIMVDDSKTVTDMLMTICARIGITNHDEYSLVRELMEEKKDEGTGTLRKDKTLLRDEKKMEKLKQKLHTDDELNWLDHGRTLREQGVEEHETLLLRRKFFYSDQNVDSRDPVQLNLLYVQARDDILNGSHPVSFDKACEFAGFQCQIQFGPHNEQKHKAGFLDLKDFLPKEYVKQKGERKIFQAHKNCGQMSEIEAKVRYVKLARSLKTYGVSFFLVKEKMKGDNKLVPRLLGITKECVMRVDEKTKEVIQEWSLTNIKRWAASPKSFTLDFGDYQDGYYSVQTTEGEQIAQLIAGYIDIILKKKKSKDHFGLEGDEESTMLEDSVSPKKSTVLQ [chain 1 K322D], for which the response (% GFP-expressing cells) was determined as 2.28.

The values above are taken from article PMC11104707.
